For assay [1], the target named is T1, Human pancreatic α-amylase (human, UniProt P04746 16-511).
T1 construct: Recombinant, secreted from Pichia pastoris, purified and deglycosylated; also called HPA; human pancreatic alpha amylase
T1 sequence: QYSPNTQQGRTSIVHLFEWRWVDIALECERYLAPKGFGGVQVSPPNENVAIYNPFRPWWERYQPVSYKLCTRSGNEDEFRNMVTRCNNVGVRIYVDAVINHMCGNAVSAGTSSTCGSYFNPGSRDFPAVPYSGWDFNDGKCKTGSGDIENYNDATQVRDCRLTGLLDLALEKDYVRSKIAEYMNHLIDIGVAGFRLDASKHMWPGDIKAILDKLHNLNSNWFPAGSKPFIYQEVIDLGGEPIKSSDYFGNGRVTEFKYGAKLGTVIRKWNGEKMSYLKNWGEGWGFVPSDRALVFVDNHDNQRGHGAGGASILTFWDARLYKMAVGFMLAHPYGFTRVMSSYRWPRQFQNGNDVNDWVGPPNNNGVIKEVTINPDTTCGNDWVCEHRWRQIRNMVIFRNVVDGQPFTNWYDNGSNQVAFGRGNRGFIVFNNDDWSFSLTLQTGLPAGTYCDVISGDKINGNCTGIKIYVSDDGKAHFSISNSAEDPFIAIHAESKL
Briefly: enzyme kinetics (CNP-G3 hydrolysis), Morrison tight-binding fit, competitive inhibition; recombinant helianthamide.

For assay [2], the target named is T2, Porcine pancreatic α-amylase (porcine, UniProt P00690 16-511).
T2 construct: Bought enzyme; also called PPA
T2 sequence: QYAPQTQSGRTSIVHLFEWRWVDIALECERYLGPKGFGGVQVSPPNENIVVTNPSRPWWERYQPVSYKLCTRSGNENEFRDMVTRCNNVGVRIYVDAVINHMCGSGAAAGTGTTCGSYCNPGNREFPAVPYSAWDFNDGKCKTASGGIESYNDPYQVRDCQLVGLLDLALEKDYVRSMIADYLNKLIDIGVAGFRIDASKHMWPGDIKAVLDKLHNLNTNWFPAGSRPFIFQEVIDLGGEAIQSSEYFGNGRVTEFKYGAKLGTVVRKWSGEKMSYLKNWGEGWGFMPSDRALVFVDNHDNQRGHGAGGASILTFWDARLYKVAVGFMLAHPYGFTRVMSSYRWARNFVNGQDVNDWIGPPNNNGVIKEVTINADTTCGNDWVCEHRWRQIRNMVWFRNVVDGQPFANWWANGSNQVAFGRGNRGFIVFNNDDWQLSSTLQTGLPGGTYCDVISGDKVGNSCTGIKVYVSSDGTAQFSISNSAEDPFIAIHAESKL
In words: enzyme kinetics, inhibition of glycosidase activity.

Assay [3] has as its target T3, T163R HPA mutant (human, UniProt P04746 16-511).
T3 construct: it may be shifted against the precursor entry
T3 sequence: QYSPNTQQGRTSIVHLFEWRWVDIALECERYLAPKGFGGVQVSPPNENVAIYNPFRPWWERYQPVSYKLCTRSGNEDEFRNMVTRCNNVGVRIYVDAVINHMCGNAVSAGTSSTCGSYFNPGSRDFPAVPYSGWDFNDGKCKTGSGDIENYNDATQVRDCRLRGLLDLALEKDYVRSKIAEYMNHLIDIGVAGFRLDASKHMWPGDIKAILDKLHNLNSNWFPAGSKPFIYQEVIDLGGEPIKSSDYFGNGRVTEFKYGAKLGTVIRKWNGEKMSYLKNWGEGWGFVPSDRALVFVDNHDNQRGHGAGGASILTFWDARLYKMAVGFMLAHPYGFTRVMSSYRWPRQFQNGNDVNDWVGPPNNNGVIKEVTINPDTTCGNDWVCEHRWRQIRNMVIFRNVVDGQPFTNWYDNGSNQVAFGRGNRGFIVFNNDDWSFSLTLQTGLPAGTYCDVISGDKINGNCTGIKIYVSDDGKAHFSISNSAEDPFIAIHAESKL
Briefly: enzyme kinetics, Ki against T163R HPA compared with HPA.

Assay [4] has as its target T1, Human pancreatic α-amylase. Briefly: enzyme kinetics (CNP-G3 hydrolysis), uncleaved bar′ fusion.
Assay [5] deals with T3, T163R HPA mutant. The description is as above.
Assay [6] addresses T1, Human pancreatic α-amylase. In words: enzyme kinetics, Ki of bar′ fusion mutants against HPA.

Bridges are numbered along the chain shown (N, C = ends). Where no end group is shown, it is not given here.

B1: Helianthamide (peptide)
peptide: ESGNSCYIYHGVSGICKASCAEDEKAMAGMGVCEGHLCCYKTPW
modifications: disulfide 16-33, 20-39, 6-38
notes: 44-residue peptide with three disulfide bonds in a 1-5, 2-4, 3-6 pattern (C6-C38, C16-C33, C20-C39); crystal structure with PPA; also called recombinant Helianthamide; synthetic Helianthamide
For the molecule B1, the inhibitory constant (Ki) was found to be 0.01 nM in assay [1] and 0.1 nM in assay [2].

B2: bar′-Helianthamide fusion (other)
chain: ESGNSCYIYHGVSGICKASCAEDEKAMAGMGVCEGHLCCYKTPW
modifications: not fully specified (N-terminus); ends and bridges not checked
notes: Uncleaved fusion secreted from E. coli BL21*(DE3), purified on nickel; The text says that the junction is a TEV site; also called barnase′-helianthamide
Take B2: the “fold decrease in potency (against wild-type HPA)” value with T163R HPA mutant [3] came out at 20 fold. Also, the results for the Ki (in assay [4]; with T163R HPA mutant [5]) were 0.9 nM and 20 nM, respectively.

B3: Bar′-Y9A (other)
chain: ESGNSCYIAHGVSGICKASCAEDEKAMAGMGVCEGHLCCYKTPW
modifications: not fully specified (N-terminus); ends and bridges not checked
notes: Tested as uncleaved fusion; also called Y9A mutant of Helianthamide in bar′-Helianthamide fusion form
For the molecule B3, the “fold decrease in potency (against the bar′-Helianthamide fusion)” value in assay [6] was determined as 50 fold. The Ki in assay [4] stood at 47 nM; in the assay with T163R HPA mutant [5] it was 960 nM.

B4: Bar′-H10A (other)
chain: ESGNSCYIYAGVSGICKASCAEDEKAMAGMGVCEGHLCCYKTPW
modifications: not fully specified (N-terminus); ends and bridges not checked
notes: Tested as uncleaved fusion; also called H10A mutant of Helianthamide in bar′-Helianthamide fusion form
Turning to B4, the Ki in assay [4] was found to be 15 nM; with T163R HPA mutant [5], 321 nM.

B5: Bar′-Y7A (other)
chain: ESGNSCAIYHGVSGICKASCAEDEKAMAGMGVCEGHLCCYKTPW
modifications: not fully specified (N-terminus); ends and bridges not checked
notes: Tested as uncleaved fusion; also called Y7A mutant of Helianthamide in bar′-Helianthamide fusion form
On to B5, for which the results for the Ki (in assay [4]; in the assay with T163R HPA mutant [5]) were 5 nM and 107 nM, respectively.
